Results from PMC3968096.

Assays:
[1] = system: T1, VEGF165 (soluble) (human), P15692-4; test: F-EMSA; conditions: 1 mM Mg2+, 10 mM HEPES pH 7.9, 125 mM NaCl, 25 mM KCl, 1 mM MgCl2, F-EMSA at room temperature for 2 h, 5% PAGE at 4 C, flow cytometry in the same buffer
T1 sequence: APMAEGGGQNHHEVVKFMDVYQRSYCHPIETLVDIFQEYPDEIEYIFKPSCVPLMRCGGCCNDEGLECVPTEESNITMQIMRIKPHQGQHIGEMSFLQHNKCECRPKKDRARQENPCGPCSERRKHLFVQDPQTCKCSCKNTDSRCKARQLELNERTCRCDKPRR

PDGF-A (human) = PDGF-A (human) (UniProt P04085); test: flow cytometry, yeast display; conditions: 10 mM HEPES pH 7.9, 125 mM NaCl, 25 mM KCl, 1 mM MgCl2; F-EMSA at room temperature for 2 h, 5% PAGE at 4 C; flow cytometry in the same buffer

AAAGCCCACTGCATAGAGGCCGCTCAACATGCGAGCCGGT [hVap2_T2160]
Kd ([1]; same value is also printed for SL12): 0.107 µM

CAGAGCAGGGCGCCGTGTCGCATAGTGTTGTCACTCCCCTGGAGGTCCATGCGAAATATG [hPAap1]
Kd (PDGF-A (human)): 4 µM

TAGCCCACTGCATAGAGGTAGCCACGTATGTGGGTGTTACCCATTCGTAGCTACCGGTGA [hVap1 full-length (100 nt)]
Kd [1]: 0.0014 µM
